Test results published in US7960513B2, “Antibody against a human ADAM protease” (Monash University, priority 2004, dated 2011).

Columns and labels:
HEK293 cells [1] = assay: Confocal imaging of pro-EGF shedding in co-cultured EGFR-GFP/ADAM10 and HA-pro-EGF expressing cells; type: cell-based, human; settings: co-incubation with HA-pro-EGF cells for 15 min
Experimental: FIG. 5. Cleavage of cell surface pro-EGF by ADAM10 co-expressed with the EGF receptor requires the intact substrate recognition pocket of ADAM10. HEK293 cells transiently expressing EGFR-GFP and either wild type or 3A mutant ADAM10 (as indicated) were co-incubated with HEK293 cells expressing HA-tagged pro-EGF for 15 min. The cells were then washed, fixed and stained with antibodies against ADAM10 (Alexa^546, red) and HA (Alexa^647, cyan). Arrows indicate EGFR/3A Adam10-expressing cells unable to take up EGF from associated HA-pro-EGF expressing cells (stars); arrowheads indicate cells that have taken up EGF that over-express EGFR and wtAdam10 (bottom panels), or just EGFR (with endogenous Adam10), top panels.
ADAM-mediated ligand cleavage from the cell surface, also referred to as ‘shedding’ has been extensively described as mechanism that facilitates the release of the pro-forms of the EGF-receptor ligands (Blobel, 2005, supra). We were interested to see, if the here described substrate recognition site of ADAM10 would function also to recognise pro-EGF and regulate its shedding from the cell surface. We performed the same confocal imaging approach, using HEK293 cells transfected to express GFP-tagged EGF-receptor, which were co-cultured with cells expressing HA-tagged pro-EGF. […]

HEK293 cells [2] = assay: Confocal imaging of co-cultured EphA3-diHcRed/ADAM10 and GFP-ephrin expressing cells; type: cell-based, human; settings: co-incubation with GFP-ephrin-A5 or GFP-ephrin-A2 cells for 40 min
Experimental: FIG. 4. Mutation of acidic residues in the ADAM10 Cys-rich domain affects binding to EphA3/ephrin-A5 and cleavage of ephrin-A5. • A. In vitro binding of mutant ADAM10D+C to EphA3/ephrin-A5. ADAM10D+C[EEE-A] containing Alanine substitutions of Glu573, Glu578, Glu579 (lanes 1-4) or ADAM10D+C[RDD-A] (Ala substitutions of Arg525, Asp526, Asp527, lanes 5-8) were incubated alone (lanes 1, 5), or together with EphA3-Fc (lanes 2, 6), ephrin-A5-Fc (lanes 3, 7), or EphA3-Fc and ephrin-A5 (lanes 4, 8). Complexed proteins were extracted with Protein-A-Sepharose beads and analysed as in FIG. 2. • B. Binding of wild-type and mutant ADAM10ΔMP to EphA3 in cells. EphA3/293 cells were transfected with HA-ADAM10ΔMP or HA-ADAM10ΔMP [EEE-A]. Parental and transfected cells were treated for 10 min with or without pre-clustered ephrin-A5-Fc and lysed. Anti-HA and anti-EphA3 immunoprecipitates, and total cell lysates were analysed by Western blotting with indicated antibodies. • C. Ephrin-A5-Fc cleavage in cells expressing wt and 3A mutant ADAM10. EphA3/293 cells were transfected with full length, wild-type (wt) ADAM10, dominant-negative ADAM10ΔMP, or ADAM10 bearing alanine (3A) or 3 lysine (3K) substitutions of Glu573, 578, 579. Following exposure to clustered (+) or non-clustered ? ephrin-A5 Fc, cleaved ephrin was recovered and analysed by Western Blot as described in FIG. 1c. Parallel anti-HA blots of whole-cell lysates reveal the expression levels of ADAM10 constructs. • D. Model of ADAM protein modules and cleavage mechanism. Left, schematic representation of ADAM proteinases protein domain organization; right, schematic representation of the proposed interactions and positioning of ADAM10, EphA3, and Ephrin-A5 between interacting cells, leading to controlled ephrin-cleavage. • E. Ephrin cleavage from the cell surface is blocked by overexpression of 3A-mutant ADAM10. HEK293 cells were co-transfected with (red-fluorescent) EphA3-diHcRed and either wt ADAM10, ADAM10 bearing alanine (3A) substitutions at Glu573, Glu578, and Glu579, or dominant-negative ADAM10ΔMP. […]

B1: ADAM10 [EEE-A] mutant: full-length ADAM10 with alanine substitutions of Glu573, Glu578 and Glu579 (protein)
chain: TTVAEKNTCQLYIQTDHLFFKYYGTREAVIAQISSHVKAIDTIYQTTDFSGIRNISFMVKRIRINTTADEKDPTNPFRFPNIGVEKFLELNSEQNHDDYCLAYVFTDRDFDDGVLGLAWVGAPSGSSGGICEKSKLYSDGKKKSLNTGIITVQNYGSHVPPKVSHITFAHEVGHNFGSPHDSGTECTPGESKNLGQKENGNYIMYARATSGDKLNNNKFSLCSIRNISQVLEKKRNNCFVESGQPICGNGMVEQGEECDCGYSDQCKDECCYDANQPEGKKCKLKPGKQCSPSQGPCCTAHCAFKSKTEKCRDDSDCAKEGICNGITALCPASDPKPNFTDCNRHTQVCINGQCAGSICAKHGLAACTCASSDGKDDKELCHVCCMKKMEPSTCASTGSVQWNKYFLGRTITLQPGSPCNDFRGYCDVFMRCRLVDADGPLARLKKAIFSPELYENIAEWIVAYWWAVLLMGIALIMLMAGFIKICSVHTPSSNPKLPPPKPLPGTLKRRRPPQPIQQPQRQRPRESYQMGHMRR
modifications: left off: small tags and cut ends
notes: full-length ADAM10 with alanine substitutions of Glu573, Glu578 and Glu579
EGF shedding and uptake into EGF-receptor expressing cells (HEK293 cells [1]): dramatically reduced
ephrin cleavage from the cell surface and internalisation (HEK293 cells [2]): absent
ephrin cleavage from the cell surface and internalisation (HEK293 cells [2]; listed as 3A-mutant ADAM10): blocked
